Data reported in PMC8216460 (Nucleic Acids Research, 2021).

B2: VcDnaB, replicative helicase DnaB from Vibrio cholerae (enzyme)
chain: MADPRTDNRNRKIPDAQVDAIKVPPHSLEAEQSVIGGLLLDNERWDTVSEHVMTQDFYSRPHRLIFDGVKSILEAGKPLDLITLSEYLEQREQLEDVGGFAYLADLAKNTPSAANINAYAEIVAERALVRNLIGVANEIADAGYDPQGRNAEDLLDLAESKVFAIAEARTSENEGPKNVDSILERTLERIELLYKTPQDGVTGVNTGFTDLNKKTAGLQGSDLIIVAARPSMGKTTFAMNLCENAAMEQDKPVLIFSLEMPAEQIMMRMLASLSRVDQTKIRTGQLDDEDWARISSTMGILMEKKNMYIDDSSGLTPTEVRSRARRIAREHGGLSLIMVDYLQLMRVPALTDNRTLEIAEISRSLKALAKELNVPVVALSQLNRSLEQRADKRPVNSDLRESGSIEQDADLIMFIYRDEVYHPDSPLKGTAEIIIGKQRNGPIGSVRLTFQGHYSRFDNYAGPAFDDE

Assays:
[1] = target: VcDnaB, replicative helicase DnaB from Vibrio cholerae (Vibrio cholerae); test: SEC-SAXS
[2] = target: VcDnaB, replicative helicase DnaB from Vibrio cholerae (Vibrio cholerae); test: SPR
[3] = target: B2; test: SPR
VcDnaB^S296G = VcDnaB^S296G (Vibrio cholerae, UniProt A0A085R2T8 1-468, S296G); test: SPR
EcDnaB^G299S = EcDnaB^G299S (E. coli, UniProt P0ACB0 1-471, G299S); test: SPR
crystal structure = target: the molecule itself; test: crystal structure
SEC-MALS = target: the molecule itself; test: SEC-MALS

Which results are given for “VcDciA, DciA from Vibrio cholerae (natural protein)”?
stoichiometry N (VcDciA per VcDnaB hexamer) [1]: 3; stoichiometry N (VcDciA per 6 VcDnaB) [2]: 3

B1: EcDnaC, helicase loader DnaC from E. coli (natural protein)
chain: MKNVGDLMQRLQKMMPAHIKPAFKTGEELLAWQKEQGAIRSAALERENRAMKMQRTFNRSGIRPLHQNCSFENYRVECEGQMNALSKARQYVEEFDGNIASFIFSGKPGTGKNHLAAAICNELLLRGKSVLIITVADIMSAMKDTFRNSGTSEEQLLNDLSNVDLLVIDEIGVQTESKYEKVIINQIVDRRSSSKRPTGMLTNSNMEEMTKLLGERVMDRMRLGNSLWVIFNWDSYRSRVTGKEY
Does B1 bind [3]?
Result: binds

Does B1 bind (VcDnaB^S296G)?
Result: binds

What about the “fold change of the dissociation rate against EcDnaB” value (EcDnaB^G299S) of the same molecule?
The value was 2 fold.

How did the “stoichiometry N” value (crystal structure) turn out when B2 was run?
The value was 6 subunits.

B3: VcDnaB, replicative helicase DnaB from Vibrio cholerae (enzyme)
chain: MADPRTDNRNRKIPDAQVDAIKVPPHSLEAEQSVIGGLLLDNERWDTVSEHVMTQDFYSRPHRLIFDGVKSILEAGKPLDLITLSEYLEQREQLEDVGGFAYLADLAKNTPSAANINAYAEIVAERALVRNLIGVANEIADAGYDPQGRNAEDLLDLAESKVFAIAEARTSENEGPKNVDSILERTLERIELLYKTPQDGVTGVNTGFTDLNKKTAGLQGSDLIIVAARPSMGKTTFAMNLCENAAMEQDKPVLIFSLEMPAEQIMMRMLASLSRVDQTKIRTGQLDDEDWARISSTMGILMEKKNMYIDDSSGLTPTEVRSRARRIAREHGGLSLIMVDYLQLMRVPALTDNRTLEIAEISRSLKALAKELNVPVVALSQLNRSLEQRADKRPVNSDLRESGSIEQDADLIMFIYRDEVYHPDSPLKGTAEIIIGKQRNGPIGSVRLTFQGHYSRFDNYAGPAFDDE
B3 was tested. Which “stoichiometry N” value (SEC-MALS) did it give?
Its value is 6.
